Measurements: patent publication US20240368285A1 (HEFEI TG IMMUNOPHARMA, published 2024)

Experiments:
[1] = biological target: T1, MICA protein (SPR analyte) (human, UniProt Q29983 24-308, limits assumed); assay: SPR, Biacore 8K
T1 construct: also called major histocompatibility complex class I chain related polypeptide A
T1 sequence: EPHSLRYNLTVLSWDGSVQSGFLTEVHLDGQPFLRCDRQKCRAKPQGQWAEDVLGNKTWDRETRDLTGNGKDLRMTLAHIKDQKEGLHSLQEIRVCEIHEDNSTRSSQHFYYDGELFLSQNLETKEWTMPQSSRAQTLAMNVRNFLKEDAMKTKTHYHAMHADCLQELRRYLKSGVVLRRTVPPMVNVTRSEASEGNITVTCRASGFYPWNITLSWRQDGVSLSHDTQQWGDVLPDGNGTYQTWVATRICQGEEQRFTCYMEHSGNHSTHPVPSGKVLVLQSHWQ
Method: In a Biacore 8K (Cytiva) system, the antibody was diluted to a concentration of 10 µg/mL with running buffer (HBS-EP), and the antibody was conjugated onto a protein A (Cytiva, 29127556) chip at a flow rate of […].
Kinetic and affinity data of binding of the maternal antibody h5A1 and the affinity maturation antibody h5A1002 and MICA were detected.

[2] = biological target: T2, MICB001α3-Fc; assay: ELISA on coated MICB*001 α3-Fc (1 µg/ml), HRP anti-human Fab secondary, OD450
T2 construct: also called MICB*001-Fc; domain α3 of MICB-001 Fc fusion protein
T2 sequence (chain, as listed by the source limits assumed): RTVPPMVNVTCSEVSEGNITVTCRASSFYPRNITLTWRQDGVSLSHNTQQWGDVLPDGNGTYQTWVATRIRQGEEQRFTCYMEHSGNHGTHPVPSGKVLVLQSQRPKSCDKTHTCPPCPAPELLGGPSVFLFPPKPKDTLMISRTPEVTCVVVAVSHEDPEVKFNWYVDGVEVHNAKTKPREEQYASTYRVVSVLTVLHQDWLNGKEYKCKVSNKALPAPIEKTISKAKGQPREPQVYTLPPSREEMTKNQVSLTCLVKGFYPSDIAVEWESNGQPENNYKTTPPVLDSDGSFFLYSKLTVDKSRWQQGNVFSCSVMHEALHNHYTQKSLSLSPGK
Method: (§1) After the antibodies were added, signal intensity was used for judging the binding characteristics of the antibodies and MICA and MICB.
(§2) The fusion proteins (produced in the Applicant's laboratory; an amino acid sequence of MICA002α3-Fc is as set forth in SEQ ID NO: 22; an amino acid sequence of MICA005α3-Fc is as set forth in SEQ ID NO: 24; an amino acid sequence of MICA008α3-Fc is as set forth in SEQ ID NO: 25; an amino acid sequence of MICA004α3-Fc is as set forth in SEQ ID NO: 23; an amino acid sequence of MICB001α3-Fc is as set forth in SEQ ID NO: 26; and an amino acid sequence of MICB005α3-Fc is as set forth in SEQ ID NO: 27) were diluted to a concentration of 1 μg/ml with PBS and then added into a 96-well plate in a volume of 100 μl/well. The plate was placed at 4° C. overnight. The PBS in the 96-well plate was removed by sucking. After the plate was washed with PBST (that is, PBS having a pH value of 7.2 included 0.1 volume % of Tween 20) for 6 times, PBS containing 10% of BSA was added in a volume of 200 μl/well. The plate was incubated at 37° C. for 2 hours for blocking. The blocking solution was removed. […]

[3] = biological target: T3, MICA on human tumor cells (A-375, A549, HCT-15, MDA-MB-231) (human, UniProt Q29983 24-383); assay: flow cytometry on A-375 cells, Alexa-647 goat anti-human secondary, average fluorescence intensity
T3 construct: whole, on cells
T3 sequence (looked up): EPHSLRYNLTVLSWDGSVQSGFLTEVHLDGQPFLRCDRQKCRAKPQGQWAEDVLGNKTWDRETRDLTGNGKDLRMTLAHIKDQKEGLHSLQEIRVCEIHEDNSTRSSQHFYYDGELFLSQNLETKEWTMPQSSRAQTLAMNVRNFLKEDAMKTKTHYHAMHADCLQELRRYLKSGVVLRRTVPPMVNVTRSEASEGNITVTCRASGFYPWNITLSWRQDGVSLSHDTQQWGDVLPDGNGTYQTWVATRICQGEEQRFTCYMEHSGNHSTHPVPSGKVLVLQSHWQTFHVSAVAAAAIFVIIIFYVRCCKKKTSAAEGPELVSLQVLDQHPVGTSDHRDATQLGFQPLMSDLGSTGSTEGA
Method: (1) Tumor cells were diluted to a density of 2×10⁶/mL with PBS and then added into a 1.5 ml EP tube in a volume of 100 l/tube. 10 l/tube of goat serum was added into the EP tube; and blocking was conducted at 4° C. for 30 min. Antibody h5A1 (having a heavy chain sequence as set forth in SEQ ID NO: 11 and a light chain sequence as set forth in SEQ ID NO: 12), antibody h5A1002 (having a heavy chain sequence as set forth in SEQ ID NO: 13 and a light chain sequence as set forth in SEQ ID NO: 14), and control IgG1 (purchased from Biointron) were gradient-diluted (at a highest working concentration of 50 μg/ml, 10 gradients, diluted by 3 times for each gradient) and added. The tube was incubated at 4° C. for 30 min. 1 mL of PBS was added into the EP tube, and centrifugation was conducted 4° C. at a rate of 3,500 rpm for 5 min. The supernatant was removed. The EP tube was washed once with the PBS. The supernatant was removed after centrifugation. The cells were resuspended with PBS in a volume of 100 l/tube. An Alexa-647 labeled goat anti-human secondary antibody (purchased from Jackson lab) was added into the tube in a volume of 1 l/tube; and the plate was incubated in the dark at 4° C. for 30 min. The tube was washed twice with PBS, and the supernatant was removed after centrifugation. […]

[4] = biological target: T4, MICA004α3-Fc (human); assay: ELISA on coated MICA*004 α3-Fc (1 µg/ml), HRP anti-human Fab secondary, OD450
T4 construct: also called MICA*004-Fc; domain α3 of MICA-004 Fc fusion protein
T4 sequence (chain, as listed by the source limits assumed): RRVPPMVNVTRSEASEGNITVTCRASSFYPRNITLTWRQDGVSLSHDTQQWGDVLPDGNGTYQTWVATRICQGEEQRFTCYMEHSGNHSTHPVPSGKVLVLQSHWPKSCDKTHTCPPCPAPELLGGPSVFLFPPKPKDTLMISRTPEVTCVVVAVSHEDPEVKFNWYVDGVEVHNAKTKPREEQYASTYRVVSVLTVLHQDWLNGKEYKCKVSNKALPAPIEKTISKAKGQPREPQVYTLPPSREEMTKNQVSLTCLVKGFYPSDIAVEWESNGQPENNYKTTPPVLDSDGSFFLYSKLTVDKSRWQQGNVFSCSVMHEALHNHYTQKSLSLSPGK
Method: as §1, §2

fold increase of affinity against maternal antibody h5A1 [1]: ~39 times
EC50 (read off the curve) [2]: ~0.05 µg/mL
EC50 (read off the curve) [3]: ~2 µg/mL
EC50 (read off the curve) [4]: ~0.07 µg/mL
B1: affinity maturation antibody h5A1002 (antibody, V domains shown)
VH: QVQLQESGPGLVKPSETLSLTCTVSGFSLTTYGGHWIRQPPGKGLEWIGMIWTDGWTDYNAAFISRVTISVDTSKNQFSLKLSSVTAADTAVYYCARKGHGYYYAMDYWGQGTLVTVSS
VL: EIVLTQSPGTLSLSPGERATLSCTASSSVSSSYLHWYQQKPGQAPRLLIYSTSNLISGIPDRFSGSGSGTDFTLTISRLEPEDFAVYYCHQYHRSPFTFGQGTKLEIKR
notes: Human IgG1, kappa; also called h5A1002-hIgG1
